The source of these data is US20240287172A1 (SCIRHOM, published 2024).

The target of one assay is T1, miR2-FL-WT-FLAG (mouse, UniProt Q80WQ6 1-827).
T1 construct: on MEF-DKO cells
T1 sequence: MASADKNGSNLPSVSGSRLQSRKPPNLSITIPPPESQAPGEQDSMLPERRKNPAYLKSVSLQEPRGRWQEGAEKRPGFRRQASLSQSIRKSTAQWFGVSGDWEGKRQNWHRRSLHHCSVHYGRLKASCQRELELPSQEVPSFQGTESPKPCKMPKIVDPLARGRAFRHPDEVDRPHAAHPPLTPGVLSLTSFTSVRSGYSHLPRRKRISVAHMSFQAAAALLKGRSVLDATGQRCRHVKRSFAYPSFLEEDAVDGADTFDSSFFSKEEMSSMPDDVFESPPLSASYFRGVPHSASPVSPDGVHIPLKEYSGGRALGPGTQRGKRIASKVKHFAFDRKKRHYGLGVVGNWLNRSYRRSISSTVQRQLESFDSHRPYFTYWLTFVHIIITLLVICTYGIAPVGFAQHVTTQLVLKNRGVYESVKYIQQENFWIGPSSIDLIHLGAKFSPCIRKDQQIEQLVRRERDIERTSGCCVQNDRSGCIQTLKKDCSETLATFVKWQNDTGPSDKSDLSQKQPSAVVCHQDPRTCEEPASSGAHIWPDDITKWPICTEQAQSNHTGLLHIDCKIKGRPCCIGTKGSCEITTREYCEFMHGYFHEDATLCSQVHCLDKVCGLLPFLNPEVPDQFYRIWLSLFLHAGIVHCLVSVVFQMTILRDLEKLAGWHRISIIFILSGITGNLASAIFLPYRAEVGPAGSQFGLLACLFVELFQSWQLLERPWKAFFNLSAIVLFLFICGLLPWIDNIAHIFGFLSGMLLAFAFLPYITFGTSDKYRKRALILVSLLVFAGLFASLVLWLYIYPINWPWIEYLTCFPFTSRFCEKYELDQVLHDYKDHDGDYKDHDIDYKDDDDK
In words: FACS, MEF-DKO-miR2-FL-WT-FLAG cells. The method, then: In brief, immortalized MEF-DKO-EV control cells, MEF-DKO-hiR2-FL-WT-FLAG cells and MEF-DKO-miR2-FL-WT-FLAG cells were harvested with 10 mM EDTA in PBS, washed and resuspended in FACS buffer (PBS, 3% FBS, 0.05% sodium azide), and seeded in Nunc U-bottom 96-well plates (Thermo Fisher Scientific, USA) at approximately 3×10⁵ cells per well. To pellet cells and remove supernatants, the plates were centrifuged at 1,500 rpm and 4° C. for 3 minutes. For primary staining, cells were resuspended in 100 μl per well of either FACS buffer alone (controls), mouse monoclonal anti-FLAG IgG (Sigma-Aldrich, USA) at 3 μg/ml FACS buffer or the antibodies of the invention also at 3 μg/ml FACS buffer and incubated on ice for 1 hour. Afterwards, plates were centrifuged at 1,500 rpm and 4° C. for 3 minutes and washed twice with 200 μl per well of FACS buffer. For secondary staining, cells were spun down and resuspended in 100 μl per well of PE-conjugated goat anti-mouse IgG F(ab′)2 detection fragment (Dianova, Germany) diluted 1:100 in FACS buffer. Protected from light, the cell suspensions were incubated on ice for 1 hour. Plates were then centrifuged at 1,500 rpm and 4° C. for 3 minutes and washed three times with 200 μl per well of FACS buffer. Finally, cells were resuspended in 150 μl per well of FACS buffer and analyzed using a BD Accuri™ C6 Plus flow cytometer (Becton Dickinson, Germany).

Assay [1] addresses T2, dog iRhom2 full length wild type, T7-tagged (dog, UniProt Q00M95 1-827).
T2 construct: whole, on cells; on MEF-DKO cells; also called Dog-iR2-FL-WT-T7
T2 sequence: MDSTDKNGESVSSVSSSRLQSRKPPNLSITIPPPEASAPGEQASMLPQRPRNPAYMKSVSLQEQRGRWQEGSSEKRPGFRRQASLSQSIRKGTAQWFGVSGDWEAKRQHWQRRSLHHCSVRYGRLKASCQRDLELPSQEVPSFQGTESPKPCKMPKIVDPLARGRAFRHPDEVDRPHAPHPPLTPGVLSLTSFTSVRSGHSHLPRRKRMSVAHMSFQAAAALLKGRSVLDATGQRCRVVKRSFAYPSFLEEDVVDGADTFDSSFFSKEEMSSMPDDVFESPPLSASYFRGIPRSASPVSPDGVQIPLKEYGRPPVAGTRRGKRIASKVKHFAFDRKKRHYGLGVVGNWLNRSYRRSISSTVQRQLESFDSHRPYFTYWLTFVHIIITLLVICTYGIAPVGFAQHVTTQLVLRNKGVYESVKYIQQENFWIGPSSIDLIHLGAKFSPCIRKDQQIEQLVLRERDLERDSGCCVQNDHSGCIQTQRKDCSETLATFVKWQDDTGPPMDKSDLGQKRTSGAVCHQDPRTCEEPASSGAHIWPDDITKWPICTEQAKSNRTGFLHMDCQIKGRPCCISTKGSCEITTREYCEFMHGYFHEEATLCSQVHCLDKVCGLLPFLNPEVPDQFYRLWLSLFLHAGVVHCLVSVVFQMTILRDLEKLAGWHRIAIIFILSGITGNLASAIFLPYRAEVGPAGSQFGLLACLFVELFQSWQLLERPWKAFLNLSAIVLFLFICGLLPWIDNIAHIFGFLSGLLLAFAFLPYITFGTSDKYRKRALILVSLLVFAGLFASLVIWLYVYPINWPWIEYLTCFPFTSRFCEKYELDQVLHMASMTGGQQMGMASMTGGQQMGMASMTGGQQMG
In words: FACS, MEF-DKO cells; via representative antibody 16. Here is the method: In brief, immortalized MEF-DKO-EV control cells, MEF-DKO-rhesus-iR2-FL-WT-T7 cells, MEF-DKO-cyno-iR2-FL-WT-T7 cells, MEF-DKO-dog-iR2-FL-WT-T7 cells and MEF-DKO-rabbit-iR2-FL-WT-T7 cells, as well as their respective iRhom1 counterparts, were harvested with 10 mM EDTA in PBS, washed and resuspended in FACS buffer (PBS, 3% FBS, 0.05% sodium azide), and seeded in Nunc U-bottom 96-well plates (Thermo Fisher Scientific, USA) at approximately 3×10⁵ cells per well. To pellet cells and remove supernatants, the plates were centrifuged at 1,500 rpm and 4° C. for 3 minutes. For primary staining, cells were resuspended in 100 μl per well of either FACS buffer alone (controls), mouse monoclonal anti-T7 IgG (Merck Millipore, USA) at 3 μg/ml FACS buffer or the antibodies of the invention also at 3 μg/ml FACS buffer and incubated on ice for 1 hour.
Afterwards, plates were centrifuged at 1,500 rpm and 4° C. for 3 minutes and washed twice with 200 μl per well of FACS buffer. For secondary staining, cells were spun down and resuspended in 100 μl per well of PE-conjugated goat anti-mouse IgG F(ab′)2 detection fragment (Dianova, Germany) diluted 1:100 in FACS buffer. Protected from light, the cell suspensions were incubated on ice for 1 hour. Plates were then centrifuged at 1,500 rpm and 4° C. for 3 minutes and washed three times with 200 μl per well of FACS buffer. Finally, cells were resuspended in 150 μl per well of FACS buffer and analyzed using a BD Accuri™ C6 Plus flow cytometer (Becton Dickinson, Germany).
Background: Flow cytometry measures light scatter and fluorescence of single cells or particles in a stream.

B1: antibody 5 (antibody, V domains shown)
VH: QVTLKESGPGILQPSQTLSLTCSFSGFSLSTFGMGVGWIRQPSGKGLEWLAHIWWDDEKYYNSALKSRLTISKATSKNQAFLKIANVDTADTATYYCARISNYGSNYWYFNVWGTGTTVTVSS
VL: QVVLTQSPALMSASPGEKVTMTCSAGSSVSCMYWYQQKPGSSPRVLIYDTSNLASGVPARFTGSGSGTSYSLTISRMEAEDAASYYCQQWNSYPLTFGAGTKLELK
notes: mouse IgG, kappa light chain; also called clone #5; purified antibody 5
B1: the binding result is “no binding (tested: 3 µg/ml)” with miR2-FL-WT-FLAG and “binds” in assay [1].

B2: antibody 42 (antibody, V domains shown)
VH: QVTLKESGPGILQPSQTLSLTCSLSGFSLSTFGRGVGWIRQPSGKGLEWLAHIWWDDEKYYNPALKSRLTISKDTSKNQVFLRIANVDTADTATYYCARIQNYGSNYWYFDVWGTGTTVTVSS
VL: LIVLTQSPAIMSASPGEKVTMTCGATSRISYMFWYQQKPGSSPRVLIYDTSNLASGVPVRFSGSGSGTSYSLTISRVEAEDVATYYCQQWNSYPLTFGAGTKLELK
notes: mouse IgG, kappa light chain; also called clone #42; purified antibody 42
Turning to B2, the binding result with miR2-FL-WT-FLAG was “no binding (tested: 3 µg/ml)”; in assay [1] it was “binds”.

B3: antibody 44 (antibody, V domains shown)
VH: QVTLKESGPGILQPSQTLSLTCSFSGFSLSTFGMGVGWIRQPSEKGLEWLAHIWWDDDKYYNPALKSRLTISKDTSKNQIFLKITNVDTAETATYYCSRIGNYGSNYWYFDVWGTGTTVTVSS
VL: QIVLTQSPAVMSASPGEKVTMTCTASSSVYYMYWYQQTPGSSPRLLIYDTSNLASGVPVRFSGSGSGTSYSLTISRMEAEDAATYYCQQWNTYPLTFGAGTKLELK
notes: mouse IgG, kappa light chain; also called clone #44; purified antibody 44
On to B3, for which the binding result is “no binding (tested: 3 µg/ml)” with miR2-FL-WT-FLAG and “binds” in assay [1].

B4: antibody 57 (antibody, V domains shown)
VH: QVTLKESGPGILQPSQTLSLTCSFSGFSLSTFGMGVGWIRQPSGKGLEWLAHIWWDDDKYYNPALKSRLTISKDTSKNQIFLKIANVDTADSATFYCARIENYGSNYWYFDVWGTGTTVTVSS
VL: QIVLTQSPAIMSASPGEKVTMTCSASSSVSYMYWYQQKPGSSPRVLIYDTSNLASGVPVRFSGSGSGTSYSLTVSRMEAEDAATYYCQQWNSYPLTFGAGTKLELK
notes: mouse IgG, kappa light chain; also called clone #57
As to B4, the binding result in the assay with miR2-FL-WT-FLAG is reported as “no binding (tested: 3 µg/ml)”; in assay [1] it was “binds”.

B5: antibody 43 (antibody, V domains shown)
VH: QVALKESGPGILQPSQTLSLTCSFSGFSLSTFGMGVGWIRQSSGKGLEWLANIWWDDDKYYNPALKSRLTISKDASKNQAFLKIANVDTADTATYYCARIGNYGSNYWYFDVWGTGTTVTVSS
VL: QIVLTQSPAIMSASPGERVTMTCSANSRISYMYWYQQKPGSSPRLLIYDTSNLASGVPVRFSGSGSGTSYSLTISRMEAEDAATYNCQQWSSYPLTFGAGTKLELK
notes: mouse IgG, kappa light chain; also called clone #43; purified antibody 43
With B5, the figures for the binding result (with miR2-FL-WT-FLAG; in assay [1]) were “no binding (tested: 3 µg/ml)” and “binds”, respectively.

B6: antibody 22 (antibody, V domains shown)
VH: QVTLKESGPGILQPSQTLSLTCSFSGFSLSTFGMGVGWIRQPSGKGLEWLAHIWWDDEKYYNSALKSRLTISKATSKNQVFLKIANVDTADTATYYCARISNYGSNYWYFNVWGTGTTVTVSS
VL: QVVLTQSPALMSASPGEKVTMTCSAGSSVSYMYWYQQKPGSSPRVLIYDTSNLASGVPARFTGSGSGTSYSLTISRMEAEDAATYYCQQWNSYPLTFGAGTKLELK
notes: mouse IgG, kappa light chain; also called clone #22; purified antibody 22
In the case of B6, the binding result with miR2-FL-WT-FLAG is reported as “no binding (tested: 3 µg/ml)”; in assay [1], “binds”.

B7: antibody 34 (antibody, V domains shown)
VH: QVTLKESGPGILQPSQTLSLTCSFSGFSLSTFSLGVGWIRQSSGKGLEWLAHIWWDDEKYYNPALKSRLTISKDTSKNQVFLKIANVDAADTATYYCARAYYSKSYYALDYWGQGTSVTVSS
VL: DIQMTQSPSSLSASLGERVSLTCRASQEISGYLSWLQQKPDGTIKRLIYAASTLDSGVPKRFSGSRSGSDYSLAISSLESEDFADYYCLQYANFPFTFGSGTKLEIK
notes: mouse IgG, kappa light chain; also called clone #34; purified antibody 34
In the case of B7, the figures for the binding result (with miR2-FL-WT-FLAG; in assay [1]) were “no binding (tested: 3 µg/ml)” and “binds”, respectively.

B8: antibody 16 (antibody, V domains shown)
VH: QVTLKESGPGILQPSQTLSLTCSFSGFSLSTFALGVGWIRQPSGRGLEWLAHIWWDDDKYYNPALKSRLTISKDTSKNHVFLKIANVDTADTATYYCARITTYYYGMDYWGQGTSVTVSS
VL: DIVLSQSPATLSVTPGDSVSLFCRASQSIGNHLHWYQQESHASPRLLIKYASQSISGIPSRFSGSGSGTDFTLSINSVETEDFGMYFCQQSYNWPLTFGAGTKLELK
notes: mouse IgG, kappa light chain; also called clone #16; purified antibody 16
Regarding B8, the binding result in the assay with miR2-FL-WT-FLAG is “no binding (tested: 3 µg/ml)”.

B9: antibody 3 (antibody, V domains shown)
VH: QVTLKESGPGILQPSQTLSLTCSFSGFSLTTFAMGIGWVRQPSGKGLEWLAHIWWDGEKYNNPVLKSRLTISKDTSKNQVFLRIANVDTPDTATYYCARISSIYYIIDNWGQGTSVTVSS
VL: DIVLTQSPATLSVTPGHSVSLSCRASQSISNNLHWYQKKSHESPRLLIKYVSQSISGIPSRFSGSGSGTDFTLSINSVETEDFGMYFCQQSYNWPLTFGAGTKLELK
notes: mouse IgG, kappa light chain; also called clone #3; purified antibody 3
Turning to B9, in assay [1], the binding result is given as “binds”.

B10: antibody 46 (antibody, V domains shown)
VH: QVTLKESGPGILQPSQTLSLTCSFSGFSLSTFGMGVGWIRQPSGKGLEWLAHIWWDDDNYYNQALKSRLTISKDNTKNQVFLNIANVDTADTATYYCARIRSYDYDVRYAMDYWGQGTSVTVSS
VL: DIKMTQSPSSMYASLRERVTITCKASQDINSYLSWFQQKPGKSPKTLIYRANRLVDGVPSRFSGSGSGQDYSLTISSLEYEDLGIYYCQQYYEFPLTFGAGTRLELK
notes: mouse IgG, kappa light chain; also called clone #46
B10: the binding result is “no binding (tested: 3 µg/ml)” in the assay with miR2-FL-WT-FLAG and “binds” in assay [1].
